Experimental data as given in the Human Domainome abundance scans (Beltran et al. 2025).
± gives the uncertainty stated by the source.

B1: Ankyrin-3, residues 4094 to 4171; numbered along this chain, Q12955 (parent)
chain: MAIVADHLGLSWTELARELNFSVDEINQIRVENPNSLISQSFMLLKKWVTRDGKNATTDALTSVLTKINRIDIVTLLE

Variants of: B1
Assay: abundance fitness (aPCA) (normalised: wild type 0, dead -1); higher = more abundant; growth selection in yeast, the domain comes from the species named
Conditions: Homo sapiens

Variant	abundance fitness
MAIVADHLGLSWTELARELNFSVDEINQIRVENPNSLISQSFMLLKKWVTRDGPNATTDALTSVLTKINRIDIVTLLE [K54P]	-0.107 ± 0.076
MAIVADHLGLSWTELARELNFSVDEINQIRVENPNSLISQSFMLLKKWVTRDGTNATTDALTSVLTKINRIDIVTLLE [K54T]	-0.121 ± 0.082
MAIVADHLGLSWTELARELNFSVDEINQIRVENPNSLISQSFMLLKKWVTRDGQNATTDALTSVLTKINRIDIVTLLE [K54Q]	-0.054 ± 0.085
MAIVADHLGLSWTELARELNFSVDEINQIRVENPNSLISQSFMLLKKWVTRDGVNATTDALTSVLTKINRIDIVTLLE [K54V]	0.038 ± 0.055
MAIVADHLGLSWTELARELNFSVDEINQIRVENPNSLISQSFMLLKKWVTRDGENATTDALTSVLTKINRIDIVTLLE [K54E]	-0.132 ± 0.11
MAIVADHLGLSWTELARELNFSVDEINQIRVENPNSLISQSFMLLKKWVTRDGHNATTDALTSVLTKINRIDIVTLLE [K54H]	0.037 ± 0.14
MAIVADHLGLSWTELARELNFSVDEINQIRVENPNSLISQSFMLLKKWVTRDGWNATTDALTSVLTKINRIDIVTLLE [K54W]	-0.21 ± 0.07
MAIVADHLGLSWTELARELNFSVDEINQIRVENPNSLISQSFMLLKKWVTRDGDNATTDALTSVLTKINRIDIVTLLE [K54D]	-0.233 ± 0.15
MAIVADHLGLSWTELARELNFSVDEINQIRVENPNSLISQSFMLLKKWVTRDGNNATTDALTSVLTKINRIDIVTLLE [K54N]	-0.316 ± 0.34
MAIVADHLGLSWTELARELNFSVDEINQIRVENPNSLISQSFMLLKKWVTRDGRNATTDALTSVLTKINRIDIVTLLE [K54R]	-0.064 ± 0.042
MAIVADHLGLSWTELARELNFSVDEINQIRVENPNSLISQSFMLLKKWVTRDGCNATTDALTSVLTKINRIDIVTLLE [K54C]	-0.088 ± 0.076
MAIVADHLGLSWTELARELNFSVDEINQIRVENPNSLISQSFMLLKKWVTRDGINATTDALTSVLTKINRIDIVTLLE [K54I]	0.065 ± 0.12
MAIVADHLGLSWTELARELNFSVDEINQIRVENPNSLISQSFMLLKKWVTRDGFNATTDALTSVLTKINRIDIVTLLE [K54F]	-0.156 ± 0.088
MAIVADHLGLSWTELARELNFSVDEINQIRVENPNSLISQSFMLLKKWVTRDGANATTDALTSVLTKINRIDIVTLLE [K54A]	-0.019 ± 0.059
MAIVADHLGLSWTELARELNFSVDEINQIRVENPNSLISQSFMLLKKWVTRDGLNATTDALTSVLTKINRIDIVTLLE [K54L]	-0.051 ± 0.048
MAIVADHLGLSWTELARELNFSVDEINQIRVENPNSLISQSFMLLKKWVTRDGSNATTDALTSVLTKINRIDIVTLLE [K54S]	0.049 ± 0.058
MAIVADHLGLSWTELARELNFSVDEINQIRVENPNSLISQSFMLLKKWVTRDGMNATTDALTSVLTKINRIDIVTLLE [K54M]	-0.1 ± 0.073
MAIVADHLGLSWTELARELNFSVDEINQIRVENPNSLISQSFMLLKKWVTRDGYNATTDALTSVLTKINRIDIVTLLE [K54Y]	-0.147 ± 0.079

Variant	abundance fitness
MAIVADHLGLSWTELARELNFSVDEINQIRVENPNSLISQSFMLLKKWVTRDGKNHTTDALTSVLTKINRIDIVTLLE [A56H]	-0.296 ± 0.18
MAIVADHLGLSWTELARELNFSVDEINQIRVENPNSLISQSFMLLKKWVTRDGKNKTTDALTSVLTKINRIDIVTLLE [A56K]	-0.175 ± 0.21
MAIVADHLGLSWTELARELNFSVDEINQIRVENPNSLISQSFMLLKKWVTRDGKNNTTDALTSVLTKINRIDIVTLLE [A56N]	-0.53 ± 0.29
MAIVADHLGLSWTELARELNFSVDEINQIRVENPNSLISQSFMLLKKWVTRDGKNLTTDALTSVLTKINRIDIVTLLE [A56L]	-0.433 ± 0.075
MAIVADHLGLSWTELARELNFSVDEINQIRVENPNSLISQSFMLLKKWVTRDGKNMTTDALTSVLTKINRIDIVTLLE [A56M]	-0.526 ± 0.12
MAIVADHLGLSWTELARELNFSVDEINQIRVENPNSLISQSFMLLKKWVTRDGKNWTTDALTSVLTKINRIDIVTLLE [A56W]	-0.458 ± 0.072
MAIVADHLGLSWTELARELNFSVDEINQIRVENPNSLISQSFMLLKKWVTRDGKNTTTDALTSVLTKINRIDIVTLLE [A56T]	-0.517 ± 0.11
MAIVADHLGLSWTELARELNFSVDEINQIRVENPNSLISQSFMLLKKWVTRDGKNVTTDALTSVLTKINRIDIVTLLE [A56V]	-0.037 ± 0.049
MAIVADHLGLSWTELARELNFSVDEINQIRVENPNSLISQSFMLLKKWVTRDGKNFTTDALTSVLTKINRIDIVTLLE [A56F]	-0.304 ± 0.19
MAIVADHLGLSWTELARELNFSVDEINQIRVENPNSLISQSFMLLKKWVTRDGKNRTTDALTSVLTKINRIDIVTLLE [A56R]	-0.506 ± 0.059
MAIVADHLGLSWTELARELNFSVDEINQIRVENPNSLISQSFMLLKKWVTRDGKNITTDALTSVLTKINRIDIVTLLE [A56I]	-0.298 ± 0.16
MAIVADHLGLSWTELARELNFSVDEINQIRVENPNSLISQSFMLLKKWVTRDGKNSTTDALTSVLTKINRIDIVTLLE [A56S]	-0.517 ± 0.082
MAIVADHLGLSWTELARELNFSVDEINQIRVENPNSLISQSFMLLKKWVTRDGKNYTTDALTSVLTKINRIDIVTLLE [A56Y]	-0.353 ± 0.31
MAIVADHLGLSWTELARELNFSVDEINQIRVENPNSLISQSFMLLKKWVTRDGKNGTTDALTSVLTKINRIDIVTLLE [A56G]	-0.613 ± 0.072
MAIVADHLGLSWTELARELNFSVDEINQIRVENPNSLISQSFMLLKKWVTRDGKNCTTDALTSVLTKINRIDIVTLLE [A56C]	-0.271 ± 0.11
MAIVADHLGLSWTELARELNFSVDEINQIRVENPNSLISQSFMLLKKWVTRDGKNADTDALTSVLTKINRIDIVTLLE [T57D]	-0.108 ± 0.11
MAIVADHLGLSWTELARELNFSVDEINQIRVENPNSLISQSFMLLKKWVTRDGKNAFTDALTSVLTKINRIDIVTLLE [T57F]	-0.39 ± 0.13
